Data as given in the supplement of paper PMC12636428.

System: Saccharomyces cerevisiae
Test: transcriptional activation domain activity (GFP:mCherry ratio, weighted mean of sorted bins, harmonized to initial dataset scale) (arbitrary fluorescence ratio units); higher = stronger transcriptional activation
Conditions: beta-estradiol 1 µM; induction time 4 h
Procedure, shortened: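 Each value is an activation activity: the read-weighted mean of bin median fluorescence, averaged across barcodes, then mapped linearly to the initial dataset scale. The tiles, fused to an estradiol-inducible synthetic transcription factor, sat at the yeast URA3 locus in GFP-reporter diploids. Cells spent 4 hours at 30 °C in SC with 1 uM beta-estradiol before sorting into 8 GFP:mCherry bins, and tiles below 50 reads were removed.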

| Sequence | transcriptional activation domain activity |
| --- | --- |
| MCFRILLSFLHVHPLFENALFYEISLICLLISWRSSTCSMHLLFIFIFILFFC | 42200 |
| MCFVVFIRWELLMISHCAVVYLLLLFLLFIVHYFLIEGFLFLYVLVRAFAFVL | 41900 |
| MCGGGWAFGLFFFFLYFFFFFLHIALLLPPLETVYFVLFFCMISRGLCFIFFF | 65400 |
| MCGGSFSLHRLHFFFIYVCFFCFVLSCLFTLAYWVVLYYARLVMGFWWFWWFG | 58300 |
| MCGLVFLFLFPFVFSSFIGGVAIFFFSYFFYFIYFILQHTRILTCTWSVFLLF | 75400 |
| MCGRLISLLVVLLLVKFRNSSLCGILDVFLFFFRRTPFVRMGFYFMIFLLLTI | 65500 |
| MCHLTLLSLCFCSVASLLLSLFPLSLCLPFFILFIPPLFFLPHHIPSSFSFLV | 59600 |
| MCIFFCPVSSLEVIWSVFLVFFYGYIFFTFFFLQCRSMVLIIPFLFTLVFHIF | 42700 |
| MCIFFKGQYPIYLAFVRPFASLFFRVPLFRLFFGIFCAWVLCFLFLLLLSFSC | 43600 |
| MCIICVLYVYYMYICFVCVHCICFYIFVHRFCLSVCMFFFFFFFFVCFINIIL | 69900 |
| MCIKLPLYPASFFIHRSLPLITSVFDLNLTLMVSLCPRIVPISFFACALLLVP | 53000 |
| MCILSLFTAWAGLTLFTCIFSFFLLCIVNALLGQNGVGGLLTARRFNTILRVC | 54400 |
| MCINMYFWKVFFMWTLIFFGLSYIPLSFPGMSYFCLLQHKVFLIILGNHFLRF | 56800 |
| MCINMYFWKVFFMWTLIFFGLSYIPLSFPGMSYFFLLQHEIFLIILGNHFLRF | 42000 |
| MCISRYWICLGKGSVLGYHSFIICFYLGLVEMMGYPLFAFFSLLFIRFLLFLS | 43700 |
| MCKKGKGVAIGPLSLSWFFNLSLVIFSLLSSLQSLWFLPWPLNFVLMVPVHFV | 79900 |
| MCKVSCLGLFGGSFFFFGFGFYLLFYSSFHFSLPGWLVWILYFFFTFFGGSLR | 45900 |
| MCLCLLLLLLLHVFIFFMSFYPSGWPPSYSIIFFLWSFILVVFYPCKFFFLVV | 70400 |
| MCLFVLCLGLLVFFPTRYLLRSAWIKFIKYFNLFLRIIDLGCLFCIPCLIIKY | 42500 |
| MCLLCHATLFSSCPYFSIFLVFSFFSFFSLFFFTSFLSLLLFMSLLPTYYHLY | 43500 |
| MCLLGDGRHPEFFIFYFLYHFFLLYLLFYPQAFSRYLFIWMGCLNCFYFRFGL | 41000 |
| MCLLGDGRHPEFFYFLFFIPFDFLLHLLFYPRAFSRYLFIWMGCLNCFYFGLA | 56200 |
| MCLRKVSSLFYIGILFVDLFPTTYVSWWFFFFFLCLNLFVLAMICFGVFWFLC | 29300 |
| MCLSFFVFLLYIYQITFSYLLSIMSQLELCRDCFFGPLALLLVIVILSSLCMY | 69700 |
| MCLTGLWWFVCKFAFSFFLSAGLFFLIHPPLFLILLPLSSFFLFLSLAAASGF | 31400 |

| Sequence | transcriptional activation domain activity |
| --- | --- |
| MCLYRYYGFRIFLCLVVVLGDLFLGYLKLYVYIYNTVLVYWGEISISLLLVYI | 71900 |
| MCMYFFTFFFFTFLFFFTFFVFFFFVSMEYLPTLLALIYIYYMSLPTSAQCSN | 35900 |
| MCNLFSFSVQSISGNGVLYIFSFKVLYTFLPSPLLFLSFFSLLFYFFILSLFS | 38400 |
| MCNVALSLAWFIFPPFLHGILPFSTCLLLVFFLSLSSSFFSLITHLLLHCYLF | 34900 |
| MCPVLFCFYSLMILIFFLSFLFRTSYIYTLYFPGLFVCCLFFLFLLFLSLSQW | 73200 |
| MCPVLFCFYSPMILIFFFFSSFSYLLYIHTILSWFVCLLFVCYYECFLLLSFS | 44700 |
| MCQWWQIVLIRWMNLQILKYWAVEVKPLMMMWRRLIVIIIVILYRNFFFFFLM | 30900 |
| MCRCFFWSFLVFFVFFSLLCLFVSFCVFLCFAFLCFVFFVFCFFCFFCLFCVF | 56600 |
| MCRFFIFLLSFLYDISVPILVFWSVHSPLLGWLFPGGGYTWRCLFFLCFLVYM | 51400 |
| MCRTLISFSLFVGVFILTSIRFFCLSLFFLSSFIFYFTLLLFFLLFLSGLFDL | 50300 |
| MCSCVIRRHPLAKPKMGSFQSIGALTCSSCSSWKMCILLFLILVWFTFRLTSL | 21400 |
| MCSIFLVFIVPPNPLSYLISFAFFFLFSFYLWCLLRRGLSYFALYAYLKYALL | 43700 |
| MCSILPTVCNQYLIFLSFVSCPSMLYLISYFFLMWSFFSLHNWFFCWVPCCVL | 52700 |
| MCTLKLLVLLRIYFPTYISFPFFSPSLLSKCHSFISFSYVPWSLVTFLIYLPS | 75600 |
| MCVAFSFSSPRFFYSWVMGDFSFFFSFLPPFDSFFSFSLGSIMYPLFLGIFFF | 59400 |
| MCVFHFLPWLLFPSPLISLFFVFFILFSFFVFFFLVPSSCPSFISFFPVSCLF | 38000 |
| MCVFLFFVLWLLQKLGLLALALRCYVQKNSLIFFLFFFLVLDYIFFFLHWCKH | 35300 |
| MCVGTCIYINIPGLHRCYLLLLHLRLSYHIPMYMFIGVPGLRFRVALLISSYF | 53300 |
| MCVHVCLMFCSLLLSLSPFFFFHDLFLFLYTFSFSLSCFTPSYFSMFSSIPSS | 76200 |
| MCVLFGNFFFFLLFSFCFYLFFFLSSFLAPLPAFFLLFCLLMGRKIGVGIIPL | 40800 |
| MCVLHHLSHTLCFALFCYVIEAFRFTSYLLLLPFWRFYVLVVIPLFIHISYVF | 52500 |
| MCVVFFPVLLLWRLLFRSFSFLPVCIVSPVTRFFFLSFFPSQSIVSNSFILPA | 29800 |
| MCVWELVLVLVVWCFRCFSFFHPLHFLPWLLYPSPLISLFFCLFYPLLFFVFF | 37900 |
| MCWACRILAAFPPPLPVFWFWFWFWFWFWFWFWLTAGWLAGFGFFVFAFCFLY | 32500 |
| MCYIIIVRWKRVWISCSCLAVIPVCPSIIPLLSILILSSLFFPFNPIFPIHGI | 34100 |

| Sequence | transcriptional activation domain activity |
| --- | --- |
| MCYQGQHVYLNHEVFAQSLLAVGFARCQVRLMWVAGIRPIVRVSTNNFLGSIR | 44800 |
| MDAAVATEPIPKKRGRPRKVASEETPAVEPKGVRKASTKTAAAVKKEEAPKKV | 37900 |
| MDAPQNNSRGNNARRNRNRGGNRQSTGGVTKQQSQQQSKPAAKPVNVQTTVVI | 47800 |
| MDASSPTSSSAKTPHNKGPRACATCARAKSRCIAGPDGAAGNCERCHRLKKPC | 9040 |
| MDATAKKAVEQPKRRACDECRGRKLACSKEVDGCARCKREGIKCVYSAQKRMG | 10500 |
| MDAVSDAARESPDSERGAESEAKRRKVRKGTRSCWECKRRKIRCSFSTASDSV | 38000 |
| MDAYFFFVFLSFLFFYIFFLLFSILLLFSFYFLCSGVHNMCFLVGVWLWSRGG | 35800 |
| MDCLGMEFIGCEIFGAVALIFLFFFLFFFFFIFFHFLLIFLFSFSFFLFFFFV | 47200 |
| MDCLLNPVVPCLVCFLPFVCKIAVSLHLPLWSICCVCVSIRIALVCTLIAFII | 50400 |
| MDDALSVKSNDDGTYDVAVHIADVSYFVKPNTALDRDARKRATSVYLIQRAVP | 15900 |
| MDDDIAMFDSLATTQPIDIAASNQQNGEIAQLWDFNVDQFNMTPSNSSGSATI | 76100 |
| MDDTDSSAAGGARWIVVSTGGRAQSPEDEAGLRRVKGACRARQNKSKNAILIH | 47100 |
| MDDTERRTAKRSRFDQTEPEPKPRASRFDRRSRSPPARKPESRRSRSPIARPS | 17000 |
| MDEDEDENENENENSKPPPPLPALPPHPHPHPHPHPHPHPQPQQPQSSSTTNE | 40800 |
| MDEEADEKGGKRRTSRACDGCRRRKIRCIASGEANSSEKAPCVNCAQSKLSCT | 27500 |
| MDEEVEERNKAFEWTSYSWGKMQIIRYWSRCHAIVVLYTSKRRMWLLVCWLSA | 60400 |
| MDEGFFFFCFSFLFLLSPPSSWYFVFSFFLPLNFPSCSLFFVITFFLFLFFFW | 37900 |
| MDELGKIAFGSIPPPQAEPNLIGDNFGIFVDDMFTAYEDPMAHWSFLFEDLFP | 151000 |
| MDESDGERGGGYGVFFLLFFFFFFLSFLFSFWLFLLFTFVLISFFGAITLLKE | 25600 |
| MDEVGLSSMRYYHFSIFNVLIVFLLGTTFLNTIIDLVYTPTSILTLLANSLPQ | 51800 |
| MDFFYIFNYLISYITNRLMILLYYFTHTHFLLFPLSLFYYYFSCSCFFLLFPP | 36500 |
| MDFNGVVFCPVYISLLPLFFYPYNIYHFNDSLMRPNEISVAVYLLLILLNFQD | 51000 |
| MDFNQLLAIFYDCIFPFREFYRWLYYGGVVQKNYFLHRELSFTLSNDAYLRFK | 41100 |
| MDFTLTWVKLHVYFFFLPYPCWKINSLVYPFFFLFFLSFPFSFFFSLFSLFLC | 69100 |
